# Source: patent US12616740B2, “Methods of using a GIP/GLP1 co-agonist for therapy” (ELI LILLY AND COMPANY, priority 2018, dated 2026)
# Key:
# Format in all cases: in vivo, human
# [1] = NCT03131687: weight loss at Week 26; conditions: dulaglutide 1.5 mg once weekly
# Procedure: (§1) Clinical Study (NCT03131687) Supporting Maintenance Dose Embodiments A 6-month (26-week) Phase 2 double-blind clinical study is designed to evaluate the safety, efficacy, and PK/PD of 4 dose levels (1 mg, 5 mg, 10 mg and 15 mg respectively) of tirzepatide once weekly by subcutaneous injection compared with dulaglutide 1.5 mg. once weekly (QW) and placebo QW in patients with T2DM who have inadequate glycemic control with diet and exercise with or without a stable dose of metformin. Tirzepatide dose is up-titrated to the maintenance dose using the following weekly dose increments:
# (§2) The study also has a 4-week follow up period. In addition to safety and efficacy for treating T2DM, efficacy endpoints include the effect of tirzepatide on HbA1c, FBG, body weight, lipids, and waist circumference compared with placebo and with dulaglutide 1.5 mg. The study also evaluates the effect of tirzepatide on GI tolerability, hypoglycemia, hypersensitivity reactions, and pancreatic safety, as well as the development of treatment-emergent anti-drug antibodies. Model-based dose response analyses are performed to predict potential for significant HbA1c lowering and weight loss in longer studies. Statistical Analyses: Efficacy: The primary efficacy outcome of HbA1c change from baseline to the 26-week endpoint is analyzed using a Bayesian dose-response model. Analyses are performed on the intention to treat population (mITT) analysis set. Supportive analysis of the primary efficacy outcome for the mITT dataset are the model for post-baseline measures (MMRM) with body mass index (BMI) (<30 kg/m^2, ≥30 kg/m^2), metformin use, treatment, visit, and treatment-by-visit interaction as fixed effects, baseline HbA1c as a covariate, and patient as a random effect. The mean weight change from baseline at 12 and 26 weeks, along with the mean change from baseline of HbA1c at 12 weeks, is analyzed using similar dose-response models as the primary analyses. The percentages of patients with ≥5% or ≥10% body weight loss, reaching the HbA1c target of ≤6.5% or ≤7.0% at 26 weeks, or requiring rescue therapy are analyzed using logistic regression with fixed effects of treatment and strata, and baseline as a covariate. The changes from baseline in FBG (fasting blood glucose), SMBG (self-monitored blood glucose) levels, waist circumference, and mean percentage change in lipids from baseline to 12 and 26 weeks are analyzed using a similar MMRM to the one used for the primary analyses. Table Abbreviations: Dula 1.5 mg=dulaglutide 1.5 mg once weekly; LY means tirzepatide, and LY 1 mg=tirzepatide 1 mg once weekly; LY 5 mg=5 mg once weekly; LY 10 mg=escalation dose group tirzepatide once weekly with highest dose of 10 mg; LY 15 mg=escalation dose group of tirzepatide once weekly with highest dose 15 mg; LOCF=last observation-carried-forward; N=number of patients; pbo=placebo; Week 26=mITT on-treatment data at Week 26 excluding data after study drug discontinuation or rescue drug initiation; mITT=modified intent-to-treat; SD=standard deviation. For Table 4, n=number of patients in the population with baseline and post-baseline value at the specified time point. For Table 6, LY10 mg=escalation dose group tirzepatide, once weekly with highest dose of 10 mg; escalation dose: (5 mg weeks 0 and 1), LY15 mg=escalation dose group tirzepatide, once weekly with highest dose of 15 mg; escalation dose: (5 mg weeks 0 and 1; 10 mg weeks 2 to 5); N=number of patients in specified group, m=number of patients who experienced new event during interval, FolUp=follow up, T/Wk=Time range, (week) and %=means percent patients spending at least some time in treatment group who experienced new event during interval. For Table 7, n is the number of patients with events meeting the criteria; N is number of patients in the population; % is percent of patients in treatment group experiencing the event.
# [2] = NCT03131687: decrease appetite (reported event); conditions: dulaglutide 1.5 mg once weekly, N = 54
# Procedure: as §1, §2
# [3] = NCT03131687: nausea, vomiting and diarrhea, new events per interval; conditions: dulaglutide 1.5 mg once weekly, N = 54
# Procedure: as §1, §2
# [4] = tested on: patients with T2DM who have inadequate glycemic control; test: Phase 2 clinical study NCT03131687 (26 weeks): patients reaching HbA1c target; conditions: dulaglutide 1.5 mg once weekly
# Procedure: as §1, §2
# [5] = tested on: patients with T2DM who have inadequate glycemic control; test: NCT03131687: mean fasting glucose at Week 26; set-up: Mean change from baseline, fasting glucose: unit not given here; conditions: dulaglutide 1.5 mg once weekly, N 46
# Procedure: as §1, §2
# [6] = second line, analysis set not given (not LOCF)
substance,measurement,setting,value
dulaglutide [reference compound],% of Patients Achieving Weight loss ≥10%,[1]; LOCF,9.3%
same,"odds ratio vs. placebo, Weight loss ≥10%",[1]; LOCF,11.7
same,% of Patients Achieving Weight loss ≥10%,[1]; [6],10.6%
same,% of Patients Achieving Weight loss ≥15%,[1]; [6],2.1%
same,"odds ratio vs. placebo, Weight loss ≥10%",[1]; [6],10.4
same,"Decrease Appetite (reported): n, number of patients with events",[2],n = 3;
same,Decrease Appetite (reported): percent of patients in treatment group experiencing the event,[2],5.6%
same,Nausea Vomiting and Diarrhea: % patients who experienced new event during interval,[3]; Fol Up (follow up),5.9%
same,"Nausea Vomiting and Diarrhea: m, number of patients who experienced new event during interval",[3]; Fol Up (follow up),3
same,Nausea Vomiting and Diarrhea: % patients who experienced new event during interval,[3]; T/Wk 0,22.2%
same,"Nausea Vomiting and Diarrhea: m, number of patients who experienced new event during interval",[3]; T/Wk 0,12
same,Nausea Vomiting and Diarrhea: % patients who experienced new event during interval,[3]; T/Wk 1,3.7%
same,"Nausea Vomiting and Diarrhea: m, number of patients who experienced new event during interval",[3]; T/Wk 1,2
same,Nausea Vomiting and Diarrhea: % patients who experienced new event during interval,[3]; T/Wk 2,0.0%
same,"Nausea Vomiting and Diarrhea: m, number of patients who experienced new event during interval",[3]; T/Wk 2,0
same,Nausea Vomiting and Diarrhea: % patients who experienced new event during interval,[3]; T/Wk 3,3.8%
same,"Nausea Vomiting and Diarrhea: m, number of patients who experienced new event during interval",[3]; T/Wk 3,2
same,Nausea Vomiting and Diarrhea: % patients who experienced new event during interval,[3]; T/Wk 4,1.9%
same,"Nausea Vomiting and Diarrhea: m, number of patients who experienced new event during interval",[3]; T/Wk 4,1
same,Nausea Vomiting and Diarrhea: % patients who experienced new event during interval,[3]; T/Wk 5,0.0%
same,"Nausea Vomiting and Diarrhea: m, number of patients who experienced new event during interval",[3]; T/Wk 5,0
same,Nausea Vomiting and Diarrhea: % patients who experienced new event during interval,[3]; T/Wk 6,0.0%
same,"Nausea Vomiting and Diarrhea: m, number of patients who experienced new event during interval",[3]; T/Wk 6,0
same,Nausea Vomiting and Diarrhea: % patients who experienced new event during interval,[3]; T/Wk 7,1.9%
same,"Nausea Vomiting and Diarrhea: m, number of patients who experienced new event during interval",[3]; T/Wk 7,1
same,Nausea Vomiting and Diarrhea: % patients who experienced new event during interval,[3]; T/Wk 8,0.0%
same,"Nausea Vomiting and Diarrhea: m, number of patients who experienced new event during interval",[3]; T/Wk 8,0
same,Nausea Vomiting and Diarrhea: % patients who experienced new event during interval,[3]; T/Wk 9,1.9%
same,"Nausea Vomiting and Diarrhea: m, number of patients who experienced new event during interval",[3]; T/Wk 9,1
same,Nausea Vomiting and Diarrhea: % patients who experienced new event during interval,[3]; T/Wk 10,0.0%
same,"Nausea Vomiting and Diarrhea: m, number of patients who experienced new event during interval",[3]; T/Wk 10,0
same,Nausea Vomiting and Diarrhea: % patients who experienced new event during interval,[3]; T/Wk 11,0.0%
same,"Nausea Vomiting and Diarrhea: m, number of patients who experienced new event during interval",[3]; T/Wk 11,0
same,Nausea Vomiting and Diarrhea: % patients who experienced new event during interval,[3]; T/Wk 12,2.0%
same,"Nausea Vomiting and Diarrhea: m, number of patients who experienced new event during interval",[3]; T/Wk 12,1
same,Nausea Vomiting and Diarrhea: % patients who experienced new event during interval,[3]; T/Wk >12 < 16,3.9%
same,"Nausea Vomiting and Diarrhea: m, number of patients who experienced new event during interval",[3]; T/Wk >12 < 16,2
same,Nausea Vomiting and Diarrhea: % patients who experienced new event during interval,[3]; T/Wk >16 ≤ 20,2.0%
same,"Nausea Vomiting and Diarrhea: m, number of patients who experienced new event during interval",[3]; T/Wk >16 ≤ 20,1
same,Nausea Vomiting and Diarrhea: % patients who experienced new event during interval,[3]; T/Wk >20,7.8%
same,"Nausea Vomiting and Diarrhea: m, number of patients who experienced new event during interval",[3]; T/Wk >20,4
same,% of Patients Reaching HbA1c Target <5.7%,[4]; LOCF Week 26 (N = 54),1.9%
same,% of Patients Reaching HbA1c Target <6%,[4]; LOCF Week 26 (N = 54),11.1%
same,"odds ratio vs. placebo, Patients Reaching HbA1c Target <5.7%",[4]; LOCF Week 26 (N = 54),1.0
same,"odds ratio vs. placebo, Patients Reaching HbA1c Target <6%",[4]; LOCF Week 26 (N = 54),4.5
same,% of Patients Reaching HbA1c Target <5.7%,[4]; mITT Week 26 (N = 47),2.1%
same,% of Patients Reaching HbA1c Target <6%,[4]; mITT Week 26 (N = 47),12.8%
same,"odds ratio vs. placebo, Patients Reaching HbA1c Target <5.7%",[4]; mITT Week 26 (N = 47),0.89
same,"odds ratio vs. placebo, Patients Reaching HbA1c Target <6%",[4]; mITT Week 26 (N = 47),4.5
same,"Mean change from baseline, fasting glucose",[5],−34.9
same,Mean glucose value (fasting),[5],140.5 mg/dL
